Experiment: soluble fraction after stress (log2 fold change); higher = more stays soluble; pooled small domains, quantitative proteomics
Conditions: stress: 50 degC
Procedure, shortened: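 The stress applied to every library was 50°C. These custom libraries of small protein domains were pooled and measured at high throughput with quantitative proteomics as the read-out. Aggregation propensity is expressed as the base-two logarithm of the fold change in how much of each protein remains soluble. The higher the value, the more of that protein stays in solution.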

Sequence | soluble fraction (log2)
HMARTLSVTVSENYANMRLDSFLFESGLYPSRSKAVKQIESGKVFVNGNEPTKKTIVVANDFIVYEEYAEE | -1.06
HMPNILLSVKDASVAISVSSKMVRLLIASGRLKAVNLGKRMTRISLQELTDFAQRQGGNVVLP | -0.147
HMTENQKNIDLIKIVSLLVHAAKIDENYTNKEKELIINFINNFSKENKQNIKSSEILEEAEKYEK | 0.0572
HMDEDTWKLYKRAYKKYYARYMKGNMSEEAFKTWAAQAARDRDAAIEQVKAALDENLKAQVIERLKEELNR | -0.407
HMGAGLLEPEPLKIEIQETQERLQKLQKALERDTETADSKERIKRAIEAHKARISQLQGLIE | 0.0635
HMTRDGMTKEAFDSLLEDIMNILLDNGLKATTMGSIAKSLKMSKRTLYEIFSSKSQMVEEAIIASHTKMM | 0.15
HMHPEITLHPVRANIYSISVKNATSMEIYSVSGQLVGIRELKEGTNTLDLTGYINGVYIVNLQNKAFKLVK | -1.94
HMQYIINFEYSGMLLREYLRGVLGLSHGTLTALKKDPLGILLNGEHATVRAVLHAGDRLTLALE | -3.05
HMGQTYTITINPTPADAKVIIDGVATNSVEAIDGRTLIWSVSKPGYLTKSGNYTVTGKNETLNIVLKEDPD | 0.087
HMTAYENSIPLNWVIQKGDAKGLPLSANTARLLIDIVGIDLMDLDHELEKISLYLSGESITEEMIKEHIRG | -0.668
HMEEMADILKTRIDTLDLSTRTLNALTGANIRTVGGIARKKKEDLLELAGMGEKGIQEIKKVLGGFGITL | -0.0181
HMTKQNVVPLMYRMIDTLEQFIKADVPFNIETRLARVERLRETMVSSSVTTSEKFRQVLEAYTIETD | -0.924
HMATLTPLGRLQLARYHAQERATLAATAERFQVSTTTVRRWVGRYHQVVAAGGRPTTADMQDRPSRP | -2
HMQQVDWGSVFGDFGTMFKDQLQPTIDRLRRMAQSDTFRQSSLEEQQILYSLIEKLERSGTA | -1.03
HMALPHEIKQKWLEEIMTMLRSSDSVTINKVYLHFPENKSHWVDEILTDLSNTHMITRQHDFIRLKN | -0.282
HMQMMDATLKIPPSMGKLRGTLYELNSVTSEDVDENGQLALHVRLSSVDWQRLKKRFDSNLDELIVQKN | -0.0668
HMVSLNKTEFIAVKKASASELRDKINSLGLDVLKDATISADARTNQIIATGPKYALEQIKMLVVGLDVSS | 0.0771
HMRMLLEERLDEIVKIVNERGSISNQELVKMFGASESTIRRDITTLANDNRVIRVHGGAMSVVS | -0.0564
HMSVTPLLDATEKDKTKYRDLWLVAVVKNGVNYARKYKFGYVYAWLYRHDRDWLLQVNNQHKIPNIT | 0.127
HMRQYTPEQLETAVLVLEEVRQGRRLDRALRSHPMPDGRLIAKHVLVAAYRKLVAEGTWKEDPEFLSRIRM | -0.237
HMSSANIKLDPLERQATQQIINNIKRKYPNATIENLQEVANDAIATMRQPEFSNYTVDKFVSYFLSM | -0.333
HMNSLFPLSLKYLREQANITQAELAQKLDVTQQAVGRWERGQTSPDYETLKRLSVLFNVSVDYLLGV | -0.304
HMDYDDLVPLDARGRLRLDGQDIILAFGRHRGRSIEEVHNHDKSYFDWLVSPAGGLEDEVIATLRERF | -0.607
HMQPPLTPRELGVLQWAAEGKTTRDTSAILQIHQRTVEMHLKSAREKLDALNTTHAVARALAHGFILPPS | -0.0855
HMTSHSFVITEEVGQRLDRFISDQLDTVSRTMIQKHIRSGAVVVNGKQVKSNYLLVLNDRINIALK | -2.64

Sequence | soluble fraction (log2)
HMDSVTLGISFNGKTRFTLDFPADAAAADIEKAALEAEQSQRYLEGMTVAKVIVVPGRIVNIVLK | -0.501
HMQTGRREALEAQLRETGGEAMLARLREIDPEAAARLHPADEKRVIRALEVYEETGKTITQHNLETKAVPP | 0.239
HMQDSIYYAQYRINIRNMPSSEGMVISRASVGEALEVLDWQEQWSKVRKQSGVEGYVASRLLTK | -1.24
HMTMSFSELLRGLRKSRGMSQAELATAVGLSQAQVSQIETGKLLPSPELIEKLAALYGIALGSA | -0.139
HMKNNNIIFSEFLKEVENGRVVEVRIQGNNIQGIMSNGKEFTTYSPNYPNLIEKLTETGVSISAAPL | 0.0449
HMKQLQIPYSFAKRHGVLLRYEGDQAFIVRRDNTSMLALQEARRLLGHPAHYLLYSEQEFNQLLSASFA | -2.7
HMHPKDVPTRRELEVLQAVSEGLSTAEIGLRLDITENTVETFRRRLIQKFDAKNAIDLVVKAMAQGWIKV | -1.16
HMDSITEADLLRWAHALSGIARTGLGFTESRYERERYEEVLAVAADILAASSRSHDRAALVDEWLKMVGV | -1.8
HMSYTDIILKMSNVNFLTKVNFTNSEKNKNIKNGNFLIKKGKNRITAAFDYKDNELVISKSNLRNTFL | -0.381
HMNPLSELSFEERRELFLEAAVRLFEEKGYKNTSVEDIAGELGFTKKVFYYYWKNKREIVQEIHDRGMA | -0.479
HMADNKDMQAAFMEALNGLKEYAKVNGNIVTKEDVNSYFKDMHLDDNKYSMITGYLMANGITIKG | 0.23
HMGIKSSASLQEAAEKAQSAYYDIEHSGVATAVDIQRAWVAMVAAQIDAGEKLDSGTITLYERLKTST | 0.0423
HMNKTLTEQIYDELKSAIIELELKPGEFVTEEYLAEQLGVSRTPLKSAISKLIFEGLMAYEVGKGTYIS | -0.747
HMSSADIPFSRFIDDVEAQRVEKVTIDGVNVTGRYRSDGAAFKTIIPSQYDGLVPILRQNKVDITVKDA | 0.123
HMNRNHVFDSNGPDLRLRGTAQQLFEKYLQLGRDATSGGDRVMAEGYFQHAEHYFRILNAMNQAAMQH | -0.68
HMAAEIGSGVVDAYDLRLRSQPSTDAETIIYLDNGAKLSVQEDLGDWYKVVSGTYTGYVSAEYVAYTPSPE | -1.13
HMFMVAGHLSEKNGYFYAVINYNDSLGNRKTKWMSTGLTVKGNKKRAEAILAEKRRTFQPDEPV | -1.69
HMKMNRELNQRQIKMLDYLSVNPKTTRKQYTKMMGISFMTSYRDIQELIDKAYIISKGQGRGTYYILAN | -0.569
HMSMANKKDFILDTAQKLFMEQGFDQTSISQILEATQIARGTLYYYFSSKEEIMDAIIERTIEQ | -1.05
HMIPSGISEHPISKLPLSMSIIHRLELAGIKTIGDITGENFSRLQEIPRIGKVTAKRILEAIQSYSEQLP | -0.15
HMKRIDTILETFAKVHKHIPSKLILLGDGPELLDMRKIARSLHIEDDVLFLGKQDQVSKFYQMADLVLLL | -0.0419
HMLPDAESFSYEVPYTKGDGGTYNYEGKIKAQNADAARDEIIRQAQVYFQMNPQFTPDYPSTTITSLD | 0.171
HMVDKNDLTAIDGIGPFLEKKLNDVGVFTYADIAGWDAAKIEEITQQISFFEGRIEKDDWVGQAQKLIDDQ | -0.157
HMVERRVRFTVAPGNAGLRLDLFLTAREIGLSRTQVGRAVDEGQIQVNGRPGRAGRKLKTGDVVAIVLPA | -0.783
HMYGLSFLIGFTVVDRTYGDIGKVTAIDDSTVNTLMAVGDRLIPAQEAFITKIDNTKKIIYTQLPEGLL | 0.177

Sequence | soluble fraction (log2)
HMTNEAFITPSVLEWAIKRAGVSAESIHKKAEQWVSGKARPTFKQAVDIAKTLQIPFGYLWLKEPPKEQ | -0.551
HMNLLGERIREIRMEMGLTAKELAQRASVTPGYISQIEHDQIKPSMNVMMRIAEVLNVPMAALLM | -0.51
HMTISIAEQIFEQLEREILSGAYPRGELLTETKLSEKLGVSRTPIREALRRLDQEHIIKMTTKGAFVLGI | -2.04
HMVAGHLSEKKGYYYAVLNYKDYTGKRKSKWVSTGLPVKGNKRRAEKILADIKRDFVPEEPKR | -0.596
HMTEPLTKREKEVLLLLPRGLTAKAMASELFLTEATIKSHLAAIFRKFKVVNRTQAIAIAVESKILT | -2.33
HMINLTKVGNFISIIKLQQIWTIDELLKKVDINYDELLYLLTILSDIYSKNGEYFFDFDIDAENNKILFNN | 0.42
HMFSAASSQISSYVRSVVDKAQTYEQAYEILAKNPLGFKLDALEDELFRIIANAEILGADDDE | -0.887
HMATYTPYDKQGAKLWRVTAYLGMDSVTGKQRNMKKGGFKTKKEAQLYYNQVKLDFENGTLDQ | -1.22
HMDTINEYERNILSLITSKPGISAVQIAADTDKSIITAKRGIKTLVDGKLIEYRGSKKTGGYFLLTQS | -0.371
HMASLSEREHDVAVLILQGKTYAEIGQAIFISPRTVEHHVASIRRRLEAKSRSDLIAKLRLTIGGTED | -2.18
HMDAYMGEAKDEETFAEEYLNDSGLLNEIPESVARYFDIVAYARDLLIGDFSLHDGHVFNMT | -0.0437
HMTSSQLNIEELERRMMMHLEQNGFITRSIYTNLTGRLKWKATEDLKIFVEKGLIRKMGRGNQMYYVKVE | -1.7
HMVVMKGKVKWFNKNKGYGFIITDDNKEYFVHWKSIVTNSPRELKVLEQDELVTFDLMETDKGIQAINII | -2.14
HMEVSTDADFEAVGIRAELIPILQKLGFTTVAQLKEVKATKLFNDIPGMRKKLKLDAVQNPTLQEIEGWLK | -0.0529
HMNKITIEEAKSIALKHSNLDESQVSFIRSEYDFDNGIEKYEIEFYYNNNKYEYEINAKTGDIISYDYDI | -0.292
HMKEVKPSDFFLSKLDEDHNLIEKFNALSSFKQKEFIEYIDSAKQEKTKHDRFEKIKPILLSNIGLNDKYR | 0.075
HMASELVSADEKYSGLVSYLLGRVVVVDQIDHAIALAKKYRYSLRIVTLDGELLSPGGSMTGGAFKNS | -0.0628
HMLFRGNGFNTLYDKQLRITQQGEFKDGRLWDGKYYRYSKAGELVRIEIYEQGRYAGNGVITDEDKA | -0.845
HMRKGDDRLRAQVDEYISKQGNNTFNYKQVAHAINATSPISQRAVALYLAELAFDGDLLETAPGRYKSPSR | 0.0382
HMEATILTATPEAAGQRLDAFLAETLPELTRSAAQRLIAEGQVAVDGKIPTKSLKLAGGETVSVRLPEPE | 0.275
HMRGPVRLDLPVSGLSRSSGPALAKILQAVPGVHKAHVNVRSGKATLEYDPARAKVTDFVEVIRSAGFGT | -0.0414
HMIAKEDDGTAFLIDGKISSEEEFKTISKDDILEVFVYKETEIAQKKLDSINSINNTYYTSLIEILLKE | -0.127
HMFDVNSMIAANIVAILKKQNRKQIDLAGALQTNKQTISKMLNGSRMINAIELKRIAEFLGVKMEELTKL | -0.635
HMKKYEFIEDLPGVGPATAQKLRDLGYHTVESLAMATARELEPIGVGEKKAFSMIEAARSAIGFS | 0.283
HMESKDIRYVQLQTVSPEEVLQALALIMPRSDVYVEPTGKLVVLHGSKETLDRAEELILALDNAV | 0.0118

Reference: the domain aggregation screens of Martell et al. (2025)
